Experiment in all cases: flow cytometry, alanine-scan library in HEK-293T
The target of one assay is T1, hsGLUT4 G65A (human, UniProt P14672 1-509).
T1 sequence: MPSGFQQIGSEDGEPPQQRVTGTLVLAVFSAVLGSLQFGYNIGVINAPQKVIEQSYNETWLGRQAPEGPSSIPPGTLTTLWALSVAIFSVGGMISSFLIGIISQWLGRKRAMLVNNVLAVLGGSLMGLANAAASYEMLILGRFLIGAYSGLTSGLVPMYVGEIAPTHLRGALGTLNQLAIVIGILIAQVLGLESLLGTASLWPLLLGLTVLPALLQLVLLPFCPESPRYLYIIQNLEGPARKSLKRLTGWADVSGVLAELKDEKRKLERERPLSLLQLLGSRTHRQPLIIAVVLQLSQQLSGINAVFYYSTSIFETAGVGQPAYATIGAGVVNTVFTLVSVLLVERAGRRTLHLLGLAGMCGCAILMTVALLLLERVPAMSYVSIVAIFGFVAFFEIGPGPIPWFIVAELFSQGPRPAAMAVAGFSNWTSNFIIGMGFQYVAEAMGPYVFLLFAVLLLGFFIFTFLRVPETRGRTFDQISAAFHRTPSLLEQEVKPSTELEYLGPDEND
In a few lines: (§1)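 HEK-293T cells expressing individual GLUT4 alanine mutants were stained 48 h post-transfection with anti-GLUT4 scFv MAbs (2 μg/ml), then biotinylated secondary and streptavidin-PerCP, and read by high-throughput flow cytometry. Where used, cytochalasin B (10 uM final) was given for 30 min before and during primary antibody staining.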

For a further assay, the target named is T2, hsGLUT4 L155A (human, UniProt P14672 1-509).
T2 sequence: T1 sequence with A65G, L155A
The essentials:
as §1

Another assay has as its target T3, hsGLUT4 E162A (human, UniProt P14672 1-509).
T3 sequence: T1 sequence with A65G, E162A
The essentials:
as §1

For another assay, the target named is T4, hsGLUT4 R416A (human, UniProt P14672 1-509).
T4 sequence: T1 sequence with A65G, R416A
The essentials: as §1

Data on four molecules can be found in patent publication US20210238276A1 (INTEGRAL MOLECULAR, published 2021).

Substitutions are numbered along the chain they refer to.

As to 1F8 (antibody), the % of binding to wild type GLUT4 with hsGLUT4 G65A came to 95%; with hsGLUT4 L155A it was 91%; with hsGLUT4 E162A, 87%; with hsGLUT4 R416A it was 73%.

B1: AB108 (Fc fusion)
scFv: ALTQPSSVSANLGGTVKITCSGSSGSYGWYQQKAPGSAPVTLIYRNDKRPSDIPSRFSGSESGSTGTLTITGVQAEDEAVYFCGGYDSSAGYAAFGAGTTLTVLGQSSRSSGGGGSSGGGGSAVTLDESGGGLQTPGGALSLVCKASGFTFSSHGMGWVRQAPGKGLEWVGSISTGRYTFYAPAVKGRATISRDNGQSTLRLQLNNLRAEDTGTYYCTKCAGLNGCGGGEIDAWGHGTEVIVSS
notes: Bivalent scFv-Fc; also called MAb AB108; not shown: Fc fragment of human IgG1, cloned in frame with the scFv
As to B1, the “% of binding to wild type GLUT4” value with hsGLUT4 G65A is 1%; in the assay with hsGLUT4 L155A, 42%; in the assay with hsGLUT4 E162A it was 41%; in the assay with hsGLUT4 R416A, 67%.

B2: AB111 (Fc fusion)
scFv: ALTQPSSVSANPGETVKITCSGSGSWYGWFQQKSPGSAPVTVIYSNDKRPSDIPSRFSGSKSGSTSTLTITGVQVEDEAVYYCGNWDIFGAGTTLTVLGQSSRSSGGGGSSGGGGSAVTLDESGGGLQTPGGALSLVCKASGFTFSSHGMGWVRQAPGKGLEWVASISTGRYTFYAPAVKGRATISRDNGQSTVRLQLNNLRAEDTATYYCTKCAGLNGCGGGEIDAWGHGTEVIVSS
notes: Bivalent scFv-Fc; also called MAb AB111; not shown: Fc fragment of human IgG1, cloned in frame with the scFv
For B2, the % of binding to wild type GLUT4 in the assay with hsGLUT4 G65A turned out to be 15%; in the assay with hsGLUT4 L155A it was 57%; with hsGLUT4 E162A, 72%; with hsGLUT4 R416A, 157%.

B3: AB101 (scFv)
scFv: ALTQPSSVSANPGETVKITCSGSSNSYGWYQQKSPGSAPVTVIYYNDKRPSDIPSRFSGSKSDSTHTLTITGVRAEDEAVYFCGSYDSTYVGIFGAGTTLTVLGQSSRSSGGGGSSGGGGSAVTLDESGGGLQTPGGTLSLVCKASGFTFSSNAMGWVRQAPGKGLEWVAGISSDGRYTKYGSAVKGRATISRDNGQSTVRLQLNNLRAEDTGTYFCAKAFGNNYRRIYAGQIDAWGHGTEVIVSS
notes: Chicken-derived clone used as a control; the four lead clones were tested as scFv-human IgG1 Fc; also called MAb AB101
With B3, the “% of binding to wild type GLUT4” value in the assay with hsGLUT4 G65A amounted to 87%; with hsGLUT4 L155A, 88%; with hsGLUT4 E162A, 83%; with hsGLUT4 R416A it was 69%.
